Experimental findings from the supplement of paper PMC5998384 are described below.

Data set [1] relates to HeLa Kyoto. Kind of data set: solubility in G1/S (NP-40 vs SDS abundance) (log2 ratio); higher = more soluble. Conditions: cell cycle stage: G1/S.
In data set [2] the test system is HeLa Kyoto. The data set is described as follows: solubility change mitosis vs G1/S (difference of NP-40 vs SDS log2 ratios) (log2 ratio difference); higher = more soluble in mitosis.
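Throughout, for solubility change mitosis vs G1/S (difference of NP-40 vs SDS log2 ratios): synchronized HeLa Kyoto cells (double thymidine block for G1/S, nocodazole release for mitosis), protein amounts in NP-40 versus SDS lysates quantified by mass spectrometry, three biological replicates.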
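Throughout, for solubility in G1/S (NP-40 vs SDS abundance): HeLa Kyoto cells arrested at G1/S by double thymidine block, proteins quantified by TMT10plex mass spectrometry in mild NP-40 versus SDS extracts, three biological replicates.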

On to “MEELSSVGEQVFAAECILSKRLRKGKLEYLVKWRGWSSKHNSWEPEENILDPRLLLAFQKKEHEKEVQNRKRGKRPRGRPRKLTAMSSCSRRSKLKEPDAPSKSKSSSSSSSSTSSSSSSDEEDDSDLDAKRGPRGRETHPVPQKKAQILVAKPELKDPIRKKRGRKPLPPEQKATRRPVSLAKVLKTARKDLGAPASKLPPPLSAPVAGLAALKAHAKEACGGPSAMATPENLASLMKGMASSPGRGGISWQSSIVHYMNRMTQSQAQAASRLALKAQATNKCGLGLDLKVRTQKGELGMSPPGSKIPKAPSGGAVEQKVGNTGGPPHTHGASRVPAGCPGPQPAPTQELSLQVLDLQSVKNGMPGVGLLARHATATKGVPATNPAPGKGTGSGLIGASGATMPTDTSKSEKLASRAVAPPTPASKRDCVKGSATPSGQESRTAPGEARKAATLPEMSAGEESSSSDSDPDSASPPSTGQNPSVSVQTSQDWKPTRSLIEHVFVTDVTANLITVTVKESPTSVGFFNLRHY [CBX2]”, for which the “solubility in G1/S (log2)” value with HeLa Kyoto [1] is -0.63. The “solubility change mitosis (log2)” value in the data set with HeLa Kyoto [2] was determined as 0.268.

Consider “MEEPEEPADSGQSLVPVYIYSPEYVSMCDSLAKIPKRASMVHSLIEAYALHKQMRIVKPKVASMEEMATFHTDAYLQHLQKVSQEGDDDHPDSIEYGLGYDCPATEGIFDYAAAIGGATITAAQCLIDGMCKVAINWSGGWHHAKKDEASGFCYLNDAVLGILRLRRKFERILYVDLDLHHGDGVEDAFSFTSKVMTVSLHKFSPGFFPGTGDVSDVGLGKGRYYSVNVPIQDGIQDEKYYQICESVLKEVYQAFNPKAVVLQLGADTIAGDPMCSFNMTPVGIGKCLKYILQWQLATLILGGGGYNLANTARCWTYLTGVILGKTLSSEIPDHEFFTAYGPDYVLEITPSCRPDRNEPHRIQQILNYIKGNLKHVV [HDAC8]”, for which the “solubility in G1/S (log2)” value with HeLa Kyoto [1] amounted to 0.168. Also, in the data set on HeLa Kyoto [2], the “solubility change mitosis (log2)” value is -0.213.

For “MEFSIKQSPLSVQSVVKCIKMKQAPEILGSANGKTPSCEVNRECSVFLSKAQLSSSLQEGVMQKFNGHDALPFIPADKLKDLTSRVFNGEPGAHDAKLRFESQEMKGIGTPPNTTPIKNGSPEIKLKITKTYMNGKPLFESSICGDSAADVSQSEENGQKPENKARRNRKRSIKYDSLLEQGLVEAALVSKISSPSDKKIPAKKESCPNTGRDKDHLLKYNVGDLVWSKVSGYPWWPCMVSADPLLHSYTKLKGQKKSARQYHVQFFGDAPERAWIFEKSLVAFEGEGQFEKLCQESAKQAPTKAEKIKLLKPISGKLRAQWEMGIVQAEEAASMSVEERKAKFTFLYVGDQLHLNPQVAKEAGIAAESLGEMAESSGVSEEAAENPKSVREECIPMKRRRRAKLCSSAETLESHPDIGKSTPQKTAEADPRRGVGSPPGRKKTTVSMPRSRKGDAASQFLVFCQKHRDEVVAEHPDASGEEIEELLRSQWSLLSEKQRARYNTKFALVAPVQAEEDSGNVNGKKRNHTKRIQDPTEDAEAEDTPRKRLRTDKHSLRKRDTITDKTARTSSYKAMEAASSLKSQAATKNLSDACKPLKKRNRASTAASSALGFSKSSSPSASLTENEVSDSPGDEPSESPYESADETQTEVSVSSKKSERGVTAKKEYVCQLCEKPGSLLLCEGPCCGAFHLACLGLSRRPEGRFTCSECASGIHSCFVCKESKTDVKRCVVTQCGKFYHEACVKKYPLTVFESRGFRCPLHSCVSCHASNPSNPRPSKGKMMRCVRCPVAYHSGDACLAAGCSVIASNSIICTAHFTARKGKRHHAHVNVSWCFVCSKGGSLLCCESCPAAFHPDCLNIEMPDGSWFCNDCRAGKKLHFQDIIWVKLGNYRWWPAEVCHPKNVPPNIQKMKHEIGEFPVFFFGSKDYYWTHQARVFPYMEGDRGSRYQGVRGIGRVFKNALQEAEARFREIKLQREARETQESERKPPPYKHIKVNKPYGKVQIYTADISEIPKCNCKPTDENPCGFDSECLNRMLMFECHPQVCPAGEFCQNQCFTKRQYPETKIIKTDGKGWGLVAKRDIRKGEFVNEYVGELIDEEECMARIKHAHENDITHFYMLTIDKDRIIDAGPKGNYSRFMNHSCQPNCETLKWTVNGDTRVGLFAVCDIPAGTELTFNYNLDCLGNEKTVCRCGASNCSGFLGDRPKTSTTLSSEEKGKKTKKKTRRRRAKGEGKRQSEDECFRCGDGGQLVLCDRKFCTKAYHLSCLGLGKRPFGKWECPWHHCDVCGKPSTSFCHLCPNSFCKEHQDGTAFSCTPDGRSYCCEHDLGAASVRSTKTEKPPPEPGKPKGKRRRRRGWRRVTEGK [WHSC1]”, in the data set on HeLa Kyoto [1], the “solubility in G1/S (log2)” value is -1.29. Besides, the “solubility change mitosis (log2)” value in the data set on HeLa Kyoto [2] came to 0.535.
